Drawing on the Human Domainome abundance scans (Beltran et al. 2025), this text covers abundance fitness for 40 variants.

B1: Lysine-specific demethylase 2B, residues 656 to 722; numbered along this chain, Q8NHM5 (parent)
chain: LPHTAVCLVCGEAGKEDTVEEEEGKFNLMLMECSICNEIIHPGCLKIKESEGVVNDELPNCWECPKC

± gives the uncertainty stated by the source.

In the series the parent is B1. The experiment in a line: abundance fitness (aPCA) (normalised: wild type 0, dead -1); higher = more abundant; growth selection in yeast, the domain comes from the species named. The conditions noted are these: Homo sapiens.
Turning to LPHTAVCLVCGEAGKEDTVEEEEGKFNLMLMECSICNEIIHPFCLKIKESEGVVNDELPNCWECPKC [G43F], the abundance fitness is -0.558 ± 0.16.

LPHTAVCLVCGEAGKEDTVEEEEGKFNLMLMECSICNEIIHPSCLKIKESEGVVNDELPNCWECPKC [G43S]: the abundance fitness was -0.364 ± 0.18.

With LPHTAVCLVCGEAGKEDTVEEEEGKFNLMLMECSICNEIIHPDCLKIKESEGVVNDELPNCWECPKC [G43D], the abundance fitness is -0.064 ± 0.2.

With LPHTAVCLVCGEAGKEDTVEEEEGKFNLMLMECSICNEIIHPPCLKIKESEGVVNDELPNCWECPKC [G43P], the abundance fitness was -0.526 ± 0.15.

As to LPHTAVCLVCGEAGKEDTVEEEEGKFNLMLMECSICNEIIHPVCLKIKESEGVVNDELPNCWECPKC [G43V], the abundance fitness was -0.302 ± 0.12.

In the case of LPHTAVCLVCGEAGKEDTVEEEEGKFNLMLMECSICNEIIHPACLKIKESEGVVNDELPNCWECPKC [G43A], the abundance fitness worked out at 0.085 ± 0.1.

On to LPHTAVCLVCGEAGKEDTVEEEEGKFNLMLMECSICNEIIHPGSLKIKESEGVVNDELPNCWECPKC [C44S], for which the abundance fitness is -0.843 ± 0.14.

Consider LPHTAVCLVCGEAGKEDTVEEEEGKFNLMLMECSICNEIIHPGGLKIKESEGVVNDELPNCWECPKC [C44G], for which the abundance fitness is -0.764 ± 0.12.

For LPHTAVCLVCGEAGKEDTVEEEEGKFNLMLMECSICNEIIHPGMLKIKESEGVVNDELPNCWECPKC [C44M], the abundance fitness was -0.735 ± 0.22.

For LPHTAVCLVCGEAGKEDTVEEEEGKFNLMLMECSICNEIIHPGNLKIKESEGVVNDELPNCWECPKC [C44N], the abundance fitness was -0.815 ± 0.46.

On to LPHTAVCLVCGEAGKEDTVEEEEGKFNLMLMECSICNEIIHPGALKIKESEGVVNDELPNCWECPKC [C44A], for which the abundance fitness is -0.779 ± 0.18.

LPHTAVCLVCGEAGKEDTVEEEEGKFNLMLMECSICNEIIHPGPLKIKESEGVVNDELPNCWECPKC [C44P]: the abundance fitness was -0.722 ± 0.12.

As to LPHTAVCLVCGEAGKEDTVEEEEGKFNLMLMECSICNEIIHPGVLKIKESEGVVNDELPNCWECPKC [C44V], the abundance fitness was -0.906 ± 0.15.

For the variant LPHTAVCLVCGEAGKEDTVEEEEGKFNLMLMECSICNEIIHPGTLKIKESEGVVNDELPNCWECPKC [C44T], the abundance fitness was -0.982 ± 0.19.

LPHTAVCLVCGEAGKEDTVEEEEGKFNLMLMECSICNEIIHPGLLKIKESEGVVNDELPNCWECPKC [C44L]: the abundance fitness is -0.956 ± 0.16.

On to LPHTAVCLVCGEAGKEDTVEEEEGKFNLMLMECSICNEIIHPGQLKIKESEGVVNDELPNCWECPKC [C44Q], for which the abundance fitness is -0.79 ± 0.12.

In the case of LPHTAVCLVCGEAGKEDTVEEEEGKFNLMLMECSICNEIIHPGRLKIKESEGVVNDELPNCWECPKC [C44R], the abundance fitness was -0.709 ± 0.11.

On to LPHTAVCLVCGEAGKEDTVEEEEGKFNLMLMECSICNEIIHPGYLKIKESEGVVNDELPNCWECPKC [C44Y], for which the abundance fitness was -0.897 ± 0.44.

LPHTAVCLVCGEAGKEDTVEEEEGKFNLMLMECSICNEIIHPGWLKIKESEGVVNDELPNCWECPKC [C44W]: the abundance fitness is -0.8 ± 0.16.

In the case of LPHTAVCLVCGEAGKEDTVEEEEGKFNLMLMECSICNEIGHPGCLKIKESEGVVNDELPNCWECPKC [I40G], the abundance fitness is -0.229 ± 0.067.

With LPHTAVCLVCGEAGKEDTVEEEEGKFNLMLMECSICNEILHPGCLKIKESEGVVNDELPNCWECPKC [I40L], the abundance fitness is -0.154 ± 0.072.

Consider LPHTAVCLVCGEAGKEDTVEEEEGKFNLMLMECSICNEIWHPGCLKIKESEGVVNDELPNCWECPKC [I40W], for which the abundance fitness is -0.473 ± 0.11.

As for LPHTAVCLVCGEAGKEDTVEEEEGKFNLMLMECSICNEIHHPGCLKIKESEGVVNDELPNCWECPKC [I40H], the abundance fitness came out at 0.1 ± 0.2.

Regarding LPHTAVCLVCGEAGKEDTVEEEEGKFNLMLMECSICNEIQHPGCLKIKESEGVVNDELPNCWECPKC [I40Q], the abundance fitness is -0.192 ± 0.056.

For the variant LPHTAVCLVCGEAGKEDTVEEEEGKFNLMLMECSICNEIVHPGCLKIKESEGVVNDELPNCWECPKC [I40V], the abundance fitness came to 0.215 ± 0.074.

Regarding LPHTAVCLVCGEAGKEDTVEEEEGKFNLMLMECSICNEINHPGCLKIKESEGVVNDELPNCWECPKC [I40N], the abundance fitness amounted to 0.171 ± 0.15.

Turning to LPHTAVCLVCGEAGKEDTVEEEEGKFNLMLMECSICNEIRHPGCLKIKESEGVVNDELPNCWECPKC [I40R], the abundance fitness was -0.2 ± 0.07.

As for LPHTAVCLVCGEAGKEDTVEEEEGKFNLMLMECSICNEIFHPGCLKIKESEGVVNDELPNCWECPKC [I40F], the abundance fitness is -0.579 ± 0.31.

For LPHTAVCLVCGEAGKEDTVEEEEGKFNLMLMECSICNEISHPGCLKIKESEGVVNDELPNCWECPKC [I40S], the abundance fitness was 0.096 ± 0.074.

On to LPHTAVCLVCGEAGKEDTVEEEEGKFNLMLMECSICNEIKHPGCLKIKESEGVVNDELPNCWECPKC [I40K], for which the abundance fitness was -0.368 ± 0.12.

LPHTAVCLVCGEAGKEDTVEEEEGKFNLMLMECSICNEIYHPGCLKIKESEGVVNDELPNCWECPKC [I40Y]: the abundance fitness is -0.257 ± 0.25.

With LPHTAVCLVCGEAGKEDTVEEEEGKFNLMLMECSICNEIPHPGCLKIKESEGVVNDELPNCWECPKC [I40P], the abundance fitness is -0.72 ± 0.12.

Turning to LPHTAVCLVCGEAGKEDTVEEEEGKFNLMLMECSICNEITHPGCLKIKESEGVVNDELPNCWECPKC [I40T], the abundance fitness worked out at 0.126 ± 0.079.

For the variant LPHTAVCLVCGEAGKEDTVEEEEGKFNLMLMECSICNEIIHPGCFKIKESEGVVNDELPNCWECPKC [L45F], the abundance fitness is -0.286 ± 0.18.

For LPHTAVCLVCGEAGKEDTVEEEEGKFNLMLMECSICNEIIHPGCDKIKESEGVVNDELPNCWECPKC [L45D], the abundance fitness is -0.483 ± 0.17.

In the case of LPHTAVCLVCGEAGKEDTVEEEEGKFNLMLMECSICNEIIHPGCAKIKESEGVVNDELPNCWECPKC [L45A], the abundance fitness is -0.224 ± 0.2.

In the case of LPHTAVCLVCGEAGKEDTVEEEEGKFNLMLMECSICNEIIHPGCIKIKESEGVVNDELPNCWECPKC [L45I], the abundance fitness was -0.434 ± 0.41.

As to LPHTAVCLVCGEAGKEDTVEEEEGKFNLMLMECSICNEIIHPGCEKIKESEGVVNDELPNCWECPKC [L45E], the abundance fitness was -0.547 ± 0.2.

Turning to LPHTAVCLVCGEAGKEDTVEEEEGKFNLMLMECSICNEIIHPGCGKIKESEGVVNDELPNCWECPKC [L45G], the abundance fitness is -0.114 ± 0.081.

Turning to LPHTAVCLVCGEAGKEDTVEEEEGKFNLMLMECSICNEIIHPGCHKIKESEGVVNDELPNCWECPKC [L45H], the abundance fitness was -0.188 ± 0.18.
